Results on one molecule are retold here after patent publication US20060073572A1, “Cytokine structurally related to IL-17” (The Johns Hopkins University, priority 2001, published 2006).

Entries after “also recorded” stand apart in the source; their conditions may differ.

What all share (assay type): cell-based, human
One assay concerns p38. Put plainly: Western blotting of p38 activation in ML-1-stimulated cells. To be noted: any time point, FIG. 6A (PBECs). As to the method: (§1) FIGS. 6A-6D. Kinetic activation of ERK1/2 by ML-1 in PBECs (FIG. 6A) and HUVECs (FIG. 6B). The cells were incubated with or without ML-1 (100 ng/ml) for different time points as indicated. Western blotting analysis was performed by using antibodies against different MAP kinases as described in Example 8. FIGS. 6C and 6D. Effect of PD98059 on ML-1-induced phosphorylation of ERK1/2 in PBECs (FIG. 6C) and HUVECs (FIG. 6D). The cells were preincubated with PD98059 ([…]) or DMSO vehicle control for 1 hour, followed by stimulation of PBECs and HUVECs with medium or ML-1 for 20 minutes or 10 minutes, respectively. The results shown are representative of three separate experiments.
(§2) For analysis of activation of MAP kinases, PBECs were treated with IL-17 (100 ng/ml) for various time periods, with or without the MEK 1/2 inhibitor PD98059 ([…]; Calbiochem, La Jolla, Calif.) (15), the p38 inhibitor SB202190 (0.5-10 μM; ref. 16), or a vehicle control, DMSO (Me2SO) for 1 hour. […] Following the treatment, the cells were washed with ice-cold PBS. […]
(§3) Immunoreactive proteins were detected using antibodies against various kinases and phosphorylated kinases. […] Western blotting detection reagents (Amersham) and Hyper ECL luminescence detection film (Amersham) were used. […]

A further assay concerns JNK. Kind of assay: Western blotting of JNK activation in ML-1-stimulated cells. The following applies: any time point, FIG. 6A (PBECs). The procedure:
as §1, §2, §3

Assay [1] concerns IL-8. Put plainly: IL-8 expression in PBECs (ELISA, RT-PCR). To be noted: ML-1 10 and 100 ng/ml, 24 and 48 hours, ELISA. As to the method: (§4) FIG. 5. Analysis of IL-6 (FIG. 5A) and IL-8 (FIG. 5B) expression in primary bronchial epithelial cells (PBECs) and human umbilical vein endothelial cells (HUVECs) stimulated by ML-1. The IL-6 and IL-8 protein release in the supernatant was determined by ELISA as described in Example 8. The results were expressed as mean+SD (n=6). *p<0.05 was considered significant vs control.
(§5) FIG. 7A-7D. Effect of PD98059 on IL-6 (FIG. 7A) and IL-8 (FIG. 7B) protein production in PBECs and HUVECs. The cells were preincubated with varying concentrations of PD98059, SB202190, or DMSO vehicle control for 1 hour, followed by stimulation with ML-1 (100 ng/ml) for 24 hours. The results are expressed as the mean+SD (n=6). *P<0.05 when compared to cultures without the addition of PD98059. FIGS. 7C and 7D. Semi-quantitative analysis of gene expression for IL-6 (FIG. 7C) and IL-8 (FIG. 7D) by RT-PCR. The cells were preincubated as described above and treated with ML-1 for 4 hours. RT-PCR was performed as described in Example 8. The results shown are representative of three separate experiments.
Primary bronchial epithelial cells (PBECs) were purchased from Clonetics (San Diego, Calif.) and cultured in bronchial epithelial basal medium (Clonetics) containing 0.5 ng/ml human recombinant epidermal growth factor (EGF), 52 mg/ml bovine pituitary extract, 0.1 mg/ml retinoic acid, 0.5 mg/ml hydrocortisone, 5 mg/ml insulin, 10 mg/ml transferrin, 0.5 mg/ml epinephrine, 6.5 ng/ml triiodothyronine, […] gentamicin, and 50 pg/ml amphotericin-B (Clonetics). […]
(§6) The amplification reaction was performed for 23 cycles with denaturation at 94° C. for 45 seconds, annealing at 56° C. for 45 seconds, and extension at 72° C. for 45 seconds. PCR products were detected by ethidium bromide staining and normalized by the intensity of an amplified housekeeping gene, G3PDH (see above). […] IL-6 and IL-8 protein levels in the collected supernatants were determined with a commercially available ELISA kit (Biosource, Camarillo, Calif.) according to the manufacturer's instructions.

In assay [2] the test system is IL-8. Kind of assay: IL-8 expression in HUVECs (ELISA, RT-PCR). To be noted: ML-1 10 and 100 ng/ml, 24 and 48 hours, ELISA. The procedure:
as §4, §5
Human umbilical vein endothelial cells (HUVECs) were obtained from Clonetics and cultured in endothelial cell growth media (EGM; Clonetics) containing 12 μg/ml bovine brain extract, 10 ng/ml EGF, 1 μg/ml hydrocortisone, 50 μg/ml gentimicin, 50 ng/ml amphotericin B, and 5% FBS amphotericin-B (Clonetics).
PBECs and HUVECs were treated with ML-1 100 ng/ml of ML-1 for various time points. Total RNA was extracted using RNeasy (Qiagen) from 1×10^6 cells 4 hours after stimulation or exchange of media. […]
as §6

B1: ML-1: new member of the IL-17 cytokine family, SEQ ID NO:2; His-tagged recombinant protein expressed in COS-7 cells and affinity purified (protein, listed as Homo sapiens)
chain: MKLDIGIINENQRVSMSRNIESRSTSPWNYTVTWDPNRYPSEVVQAQCRNLGCINAQGKEDISMNSVPIQQETLVVRRKHQGCSVSFQLEKVLVTVGCTCVTPVIHHVQ
modifications: His tag
Consider B1, for which, in the assay with p38, the “activation of p38 kinase” value is reported as “No activation”. In the assay on JNK, the “activation of JNK kinase” value is “No activation”. For the same molecule, the IL-8 production result in the assay with IL-8 [1] and in the assay with IL-8 [2] was “time-dependent increase; also recorded: significantly induced” throughout.
